Assay results as given in PMC3457645.

Key:
Assay in all cases: purified protein
[1] = substrate: CCCCCC(O)/C=C/C=O; details: NAD+
[2] = substrate: CC(=O)Oc1ccc([N+](=O)[O-])cc1; type: biochemical, Homo sapiens
[3] = substrate: CC=O; type: biochemical, Homo sapiens; details: NAD+
[4] = substrate: CCCCCC=O; type: biochemical, Homo sapiens; details: NAD+
[5] = substrate: CCCCCCCC=O; type: biochemical, Homo sapiens; details: NAD+
[6] = substrate: O=Cc1ccccc1; type: biochemical, Homo sapiens; details: NAD+

B1: ALDH3B1 (Homo sapiens) (protein)
chain: MDPLGDTLRRLREAFHAGRTRPAEFRAAQLQGLGRFLQENKQLLHDALAQDLHKSAFESEVSEVAISQGEVTLALRNLRAWMKDERVPKNLATQLDSAFIRKEPFGLVLIIAPWNYPLNLTLVPLVGALAAGNCVVLKPSEISKNVEKILAEVLPQYVDQSCFAVVLGGPQETGQLLEHRFDYIFFTGSPRVGKIVMTAAAKHLTPVTLELGGKNPCYVDDNCDPQTVANRVAWFRYFNAGQTCVAPDYVLCSPEMQERLLPALQSTITRFYGDDPQSSPNLGRIINQKQFQRLRALLGCGRVAIGGQSDESDRYIAPTVLVDVQEMEPVMQEEIFGPILPIVNVQSLDEAIEFINRREKPLALYAFSNSSQVVKRVLTQTSSGGFCGNDGFMHMTLASLPFGGVGASGMGRYHGKFSFDTFSHHRACLLRSPGMEKLNALRYPPQSPRRLRMLLVAMEAQGCSC
Km [1]: 52 ± 5 µM
Vmax [1]: 0.653 µmol/min/mg
Km [2]: 3.6 ± 0.25 mM
Vmax [2]: 1.32 µmol/min/mg
Km [3]: 23.3 ± 1.5 mM
Vmax [3]: 0.315 µmol/min/mg
Km [4]: 62 ± 8 µM
Vmax [4]: 0.679 µmol/min/mg
Km [5]: 8 ± 2 µM
Vmax [5]: 1.24 µmol/min/mg
Km [6]: 46 ± 11 µM
Vmax [6]: 0.129 µmol/min/mg
